In the nanobody polyreactivity screen of Harvey et al. (2022):

test: yeast display, Sf9 membrane polyspecificity reagent, FACS + sequencing; frameworks hold sequencing errors
How it was run: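 Sorting gates, low and high (top ~1%), were placed on anti-HA fluorescence to track expression and on streptavidin fluorescence to track reagent binding. A clone's polyreactivity label is taken from the gate it came out of. The reagent was 10% biotinylated, detergent-solubilized Sf9 membrane, applied for 1 hour at 4 °C to galactose-induced yeast display cells.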

Row | Sequence | polyreactivity (PSR sort gate)
1 | QVQLVESGGGLVQAGGSLRLSCAASGSIFTFYALGWYRQAPGQERELVAAISYSGGSTYYADSVTGRFTISRDNAKITVYLQMNSLKPEDTAVFYCARDYFVDGPGYDYWGQGTQVTVSS | low polyreactivity
2 | QVQLVESGGGLVQAGGSLRLSCAASGSIFTFYAMGWYRQAPGKERELVAAISWSGGSTYYADSVKGRFTISRDNAKNTVYLQMNSLKPEDTAVYYCAARYYVYSSRAQYHHYDYWGQGTQVTVSS | high polyreactivity
3 | QVQLVESGGGLVQAGGSLRLSCAASGSIFTFYTMGWYRQAPGKERELVAAISQTGGRTYYADSVKGRFTISRDTAKNTVYLQMNSLKPEDTAVYYCDADYYYDISDWVYEYYYWGQGTQVTVSS | high polyreactivity
4 | QVQLVESGGGLVQAGGSLRLSCAASGSIFTFYTMGWYRQAPGKERELVATIRWSVGSTYYADSVKGRFTISRDNAKNTVYLQMNSLKPEDTAVYYCAADSQWSYPDYPGEYAYDYWGQGTQVSVSS | low polyreactivity
5 | QVQLVESGGGLVQAGGSLRLSCAASGSIFTGNAMGWYRQAPGKERELVAAIRRSGA | low polyreactivity
6 | QVQLVESGGGLVQAGGSLRLSCAASGSIFTGNAMGWYRQAPGKERELVAAISSTGTTNYADSVKGRFTISRDNAKNTVYLQMNSLKPEDTAVYYCARRWYSTWWYGYWGQGTQVTVSS | high polyreactivity
7 | QVQLVESGGGLVQAGGSLRLSCAASGSIFTGNAMGWYRQAPGKERELVAAITRTGSTNYADSVKGRFTISRDNAKNTVYLQMNSLKPEDTAVYYCATDRTFTISNYDYWGQGTQVTVSS | low polyreactivity
8 | QVQLVESGGGLVQAGGSLRLSCAASGSIFTGNAMGWYRQAPGKERELVASSTTTTDSTYYADSVKGRFTISRDNAKNTVYLQMNSLKPEDTAVYYCAAEYAVAWKYGLYFYFHFDYWGQGTQVTVSS | low polyreactivity
9 | QVQLVESGGGLVQAGGSLRLSCAASGSIFTGYAMGWYRQAPGKERELVAAISRSGGRTYYADSVKGRFTISRDNAKYTVYLQMNRLKPEDTAVYYCNSVVSPWNQGYYYWGQGTQVTVSS | high polyreactivity
10 | QVQLVESGGGLVQAGGSLRLSCAASGSIFTINTMGWYRPAPGKERELVAAITGSGGITYYADSVKGRFTISRDYAKNTVYLQLNTLKPEDTAVYYCAADYWWTIPEEPQGLGAVDYWGLGTQVTVSS | low polyreactivity
11 | QVQLVESGGGLVQAGGSLRLSCAASGSIFTINTMGWYRQAPGKERELVAAITGSGGITYYADSVKGRFTISRDNAKNTVYLQMNSLKPEDTAVYYCAADTGYVHDGYWGQGTQVTVSS | low polyreactivity
12 | QVQLVESGGGLVQAGGSLRLSCAASGSIFTKYAMGWYRQAPGKERELLAAITSSSGRTYYADSVKGRFTISRDNAKNTVYLQMNSLKPEDTAVYYCNRGKRVAVSYRPGGYDYWGQGTQVTVSS | high polyreactivity
13 | QVQLVESGGGLVQAGGSLRLSCAASGSIFTKYAMGWYRQAPGKERELVAAITWSGGRTYYADSVKGRFTISRDNAKNTVYLQMNSLKPEDTAVYYCAADFFRQGYYYWGQGTQVTVSS | high polyreactivity
14 | QVQLVESGGGLVQAGGSLRLSCAASGSIFTLNAMGWYRQAPGKERELVASISKNGGRTYYADSVKGRFTISRDNAKNTVYLQMNCLKPEDTAVYYCAARYYFTPSDGRRYDYWGQGTQVTVSS | high polyreactivity
15 | QVQLVESGGGLVQAGGSLRLSCAASGSIFTLYAMGWYRQAPGKERELVATINWSGGSTSYADSVKGRFTISRDNAKNTVYLQMNSLKPEDTAVYYCAADAGSYDALDYSDLLYDYWGQGTQVTVSS | low polyreactivity
16 | QVQLVESGGGLVQAGGSLRLSCAASGSIFTNYAMGWDRQAPGKERELVAAIRSSGGSTYYADSVKGRFTISRDNAKNTVYFQLNSLKPEDTAVYYCAARKSYKYPVNSAVGYWGQGTQVTVSS | high polyreactivity
17 | QVQLVESGGGLVQAGGSLRLSCAASGSIFTNYAMGWYRQAPGKERELVAAISQSGDTTYNADSVKGRFTISRDNAKNTVYLQMNSLKPEDTAVFFCAAQYYRWFYYWGQGTQVTVSS | high polyreactivity
18 | QVQLVESGGGLVQAGGSLRLSCAASGSIFTPNAMGWYRQAPGKERELVAAISWSGGGTYYADSVKGRFTISRDNAKNTVYLQMNSLKPEDTADYYCAVDFRYQDAYEYYWGQGTQVTVSS | low polyreactivity
19 | QVQLVESGGGLVQAGGSLRLSCAASGSIFTPNVMGWYRQAPGKERELVAAISQSGGSTFYADSVKGRFTISRDNAKNTVYLQMNSLKPEDTAVYYCAADDGYTYYYWGQGTQVTVSS | low polyreactivity
20 | QVQLVESGGGLVQAGGSLRLSCAASGSIFTPYAMGWYRQAPGTEREFVAVISWRVDSTYYADSVKGRFTISRDNAKNTVYLQMNSLKPEDTAVYYCAAKSYLLAPFGSGNRWSRYDYWGQGTQVTVSS | high polyreactivity
21 | QVQLVESGGGLVQAGGSLRLSCAASGSIFTPYTMGWYRQAPGKERELVAAISWGADSTYYADSVKGRFTISRDNAKNTVYLQMISLKPEDTAVYYCGDDYWGWSNGYEYWGQGTQVTVSS | low polyreactivity

Row | Sequence | polyreactivity (PSR sort gate)
22 | QVQLVESGGGLVQAGGSLRLSCAASGSIFTQNAMGWYRQAPGKERALVAAMSSGGSTNDADSVKGRFTISRDNAKNTVYLQMNSLTPEDTAVDYCAKSIDGWYWRRRRYDYWGQGTQVTVSS | low polyreactivity
23 | QVQLVESGGGLVQAGGSLRLSCAASGSIFTQYVMGWYRQAPGKERELGAAITWSGGNTYYADSVKGRFTISRDNAKNTVYLQMNSLKPEDTAVYYCAAYKPYSKYNYWGQGTQVTVSS | high polyreactivity
24 | QVQLVESGGGLVQAGGSLRLSCAASGSIFTRNAMGWYRQAPGKERELVARISARSGRTYYADSVKGRFTISRDNAKNTVYLQMNSLKPEDTAVYYFAVRYRGKYPFRYNYWGQGTQVTVSS | high polyreactivity
25 | QVQLVESGGGLVQAGGSLRLSCAASGSIFTRYAMGWYRQAPGKERELVAAISSGGSTYYADSVKGRFTISRDNAKNTVYLQMNSLKPEDTAVYYCAKDSGSYRVGIYEPFPYGYWGQGTQVTVSS | low polyreactivity
26 | QVQLVESGGGLVQAGGSLRLSCAASGSIFTRYAMGWYRQAPGKERELVAAISTSGGSTYYADSVKGRFTISRDNAKNTVYLQMNSLKPEDTAVYYCAADDQRRSGYYSWGQGTQVTVSS | high polyreactivity
27 | QVQLVESGGGLVQAGGSLRLSCAASGSIFTSNVMGWYRPAPGKERELVAAITITGTTNYADSVKGRFTISRDNAKNTVYLQMNSLIPVDTAVYYCAKDPVDLSPADWRADYDYWGQGTQVTVSS | low polyreactivity
28 | QVQLVESGGGLVQAGGSLRLSCAASGSIFTSYAMGWYRQAPGKERELVAGIDWSGGGTYYADSVKGRFTISRDNAKNTVYLQMNSLKPEDTAVYYCNADGPYTRYGPVDYWGQGTQVTVSS | low polyreactivity
29 | QVQLVESGGGLVQAGGSLRLSCAASGSIFTTYAMGWYRQAPGKERELVAAISSTSGSTYYADSVKGRFTISRDNAKNTVYLQMNSLKPEDTAVYYCAARGGYWGQGTQVTVSS | low polyreactivity
30 | QVQLVESGGGLVQAGGSLRLSCAASGSIFTVYAMGWYRPAPGKEREFVAAITGSGGRTYYADSVKGRFTISRDNAKNTVYLQMNSLKPEDTAVYYCAATTRPGYRYEGDYWGQGTQVTVSS | low polyreactivity
31 | QVQLVESGGGLVQAGGSLRLSCAASGSIFTVYAMGWYRQAPGKERELVAVINYRGGNTYYADSVKGRFTISRDNAKNTVYLQMNSLKPEDTAVYNCATEVSWHWYQLSVPRMDYWGQGTQVTVSS | low polyreactivity
32 | QVQLVESGGGLVQAGGSLRLSCAASGSIFTVYTMGWYRQAPGKVRELVAAINSRGGTTYYADSVKGRFTISRDNAKNTLYLQMNSLKPEDTAVYYCAAKQRPKSYGPGHYYWGQGTQVTVSS | high polyreactivity
33 | QVQLVESGGGLVQAGGSLRLSCAASGSIFTWYAMGWYRQAPGKERELVAAITRGGSTYADSVKGRFTISRDNAKYTVYLQMNSLKPEDTAVYYCNAVYGVYDFNYWGQGTQVTVSS | low polyreactivity
34 | QVQLVESGGGLVQAGGSLRLSCAASGSIFTYKAKVRYRQAPGKERELVAAISASGGSTYYADSVKGRFTISRDNAKHTVYVQMNSLKPEDTALYYCNAYQTSTPLFPGYGYWGQGTQVTVSS | low polyreactivity
35 | QVQLVESGGGLVQAGGSLRLSCAASGSIFTYNAMGWYRQAPGKERELVAAISSRGTSTYYADSVKGRFTISRDNAKNTVYLQMNSLKPEDTAVYYCAAVWVSQRRPWGNTNNYWGQGTQVTVSS | high polyreactivity
36 | QVQLVESGGGLVQAGGSLRLSCAASGSIFTYNAMGWYRQAPGKERELVAAITGDDITNYADSVKGRFTISRDNAKNTVYLQMNSLKPEYTAVYYCARDQWVFGSSPVQAGEYWGQGTQVTVSS | low polyreactivity
37 | QVQLVESGGGLVQAGGSLRLSCAASGSIFTYNAMGWYRQAPGKERELVASITWSGGSTYYADSVKGRFTISRDNAKNTVYLQMNSLKPEDTAVYYCAAKRVHGATGYWGQGTQVTVSS | high polyreactivity
38 | QVQLVESGGGLVQAGGSLRLSCAASGSIFTYNGMGWYRQAPGKEREFVAAITWTGGSTYADSVKGRFTISRDNAKNTVYLQMNSLKPEDTAVYYCAAVRRISWYTPVNTRRYYYWGQGTQVTVSS | high polyreactivity
39 | QVQLVESGGGLVQAGGSLRLSCAASGSIFTYNVMGWYRHAPGKERELVAAIRTRGDRTYYADSVKGRFTISRDNAKNTVYLQMNSLKPDDTAVYYCAAAGSYYSHEYWGQGTQVTVSS | high polyreactivity
40 | QVQLVESGGGLVQAGGSLRLSCAASGSIFTYYAMGWYRQAPGKERELVAAISLDGGSTYYADSVKGRFTISRDNAKNTVYLQMNSLKPEDTAVYYCAADYRFIPYTYLYDYWGQGTQVTVSS | low polyreactivity
41 | QVQLVESGGGLVQAGGSLRLSCAASGSIFTYYAMGWYRQAPGKERELVAAISWRSGSTYYADSVKGRFTISRDNAKNTVYLQMNSLKPEDTAVYYCAAEDFDYAVWYDYWGQGTQVTVSS | high polyreactivity
